One block for each binder: values may come before it.
What was measured:
Assay in all cases: binding, other
[1] = target: T1, RLN1 peptide on HLA (human)
T1 peptide: ALSERQPSL

[2] = target: T2, XAGE1 peptide on HLA (human)
T2 peptide: KMPEAGEEQPQV

[3] = target: T3, PIWIL1 peptide on HLA (human)
T3 peptide: SIAGFVASI

[4] = target: T4, SMC1B peptide on HLA (human)
T4 peptide: ALDNTNIGKV

[5] = target: T5, SLC45A2 peptide on HLA (human)
T5 peptide: YVTPVLLSV

- binding result [4]: recognises
B5: TCR of SEQ ID NOs 585 and 586 (TCR, V domains shown)
Valpha: KQEVTQIPAALSVPEGENLVLNCSFTDSAIYNLQWFRQDPGKGLTSLLLIQSSQREQTSGRLNASLDKSSGRSTLYIAASQPGDSATYLCAVRGAGGTSYGKLTFGQGTILTVHP
Vbeta: NAGVTQTPKFQVLKTGQSMTLQCAQDMNHNSMYWYRQDPGMGLRLIYYSASEGTTDKGEVPNGYNVSRLNKREFSLRLESAAPSQTSVYFCASSDESYGYYGYTFGSGTRLTVV

- binding result [5]: recognises
B6: TCR of SEQ ID NOs 575 and 576 (TCR, V domains shown)
Valpha: KQEVTQIPAALSVPEGENLVLNCSFTDSAIYNLQWFRQDPGKGLTSLLLIQSSQREQTSGRLNASLDKSSGRSTLYIAASQPGDSATYLCAALSYNTDKLIFGTGTRLQVFP
Vbeta: NAGVTQTPKFQVLKTGQSMTLQCAQDMNHNSMYWYRQDPGMGLRLIYYSASEGTTDKGEVPNGYNVSRLNKREFSLRLESAAPSQTSVYFCASSEAYLAAFFGQGTRLTVV

- binding result [3]: recognises
B7: TCR of SEQ ID NOs 511 and 512 (TCR, V domains shown)
Valpha: KQEVTQIPVALSVPEGENLVLNCSFTDSAIYNLQWFRQDPGKGLTSLLLIQSSQREQTSGRLNASLDKSSGRSTLYIAASQPGDSATYLCAVSPYNNNDMRFGAGTRLTVKP
Vbeta: NAGVTQTPKFQVLKTGQSMTLLCAQDMNHEYMYWYRQDPGMGLRLIHYSVGEGTTDKGEVPNGYNVSRSTTEDFPLRLLSAAPSQTSVYFCASSFTGDSPLHFGNGTRLTVT

- binding result [1]: recognises
B8: TCR of SEQ ID NOs 525 and 526 (TCR, V domains shown)
Valpha: QKEVEQNSGPLSVPEGAIASLNCTYSDRGSQSFFWYRQYSGKSPELIMFIYSNGDKEDGRFTAQLNKASQYVSLLIRDSQPSDSATYLCAVGGYQKVTFGTGTKLQVIP
Vbeta: NAGVTQTPKFGILKIGQSMTLQCAQDMNHNYMYWYRQDPGMGLKLIYYSVGAGITDKGEVPNGYNVSRSTTEDFPLRLELAAPSQTSVYFCASRVDSYNEQFFGPGTRLTVL

Further lines, the binder ahead of its results:

B1: TCR of SEQ ID NOs 523 and 524 (TCR, V domains shown)
Valpha: QKEVEQNSGPLSVPEGAIASLNCTYSDRGSQSFFWYRQYSGKSPELIMSIYSNGDKEDGRFTAQLNKASQYVSLLIRDSQPSDSATYLCAVNAGGTSYGKLTFGQGTILTVHP
Vbeta: NAGVTQTPKFRVLKTGQSMTLQCAQDMNHNSMYWYRQDPGMGLRLIYYSASEGTTDKGEVPNGYNVSRLNKREFSLRLESAAPSQTSVYFCASSEIDVWYNSPLHFGNGTRLTVT
- binding result [1]: recognises

B2: TCR of SEQ ID NOs 611 and 612 (TCR, V domains shown)
Valpha: KQEVTQIPAALSVPEGENLVLNCSFTDSAIYNLQWFRQDPGKGLTSLLLIQSSQREQTSGRLNASLDKSSGRSTLYIAASQPGDSATYLCAVRPRGDSSYKLIFGSGTRLLVRP
Vbeta: DGGITQSPKYLFRKEGQNVTLSCEQNLNHDAMYWYRQDPGQGLRLIYYSQIVNDFQKGDIAEGYSVSREKKESFPLTVTSAQKNPTAFYLCASSASGSIYNEQFFGPGTRLTVL
- binding result [2]: recognises

B3: TCR of SEQ ID NOs 513 and 514 (TCR, V domains shown)
Valpha: KQEVTQIPAALSVPEGENLVLNCSFTDSAIYNLQWFRQDPGKGLTSLLLIQSSQREQTSGRLNASLDKSSGRSTLYIAASQPGDSATYLCAVGGYNKLIFGAGTRLAVHP
Vbeta: NAGVTQTPKFRVLKTGQSMTLLCAQDMNHEYMYWYRQDPGMGLRLIHYSVGAGITDQGEVPNGYNVSRSTTEDFPLRLLSAAPSQTSVYFCASRATGLTEAFFGQGTRLTVV
- binding result [3]: recognises

B4: TCR of SEQ ID NOs 581 and 582 (TCR, V domains shown)
Valpha: KQEVTQIPAALSVPEGENLVLNCSFTDSAIYNLQWFRQDPGKGLTSLLLIQSSQREQTSGRLNASLDKSSGRSTLYIAASQPGDSATYLCAVFNDYKLSFGAGTTVTVRA
Vbeta: NAGVTQTPKFQVLKTGQSMTLQCAQDMNHEYMSWYRQDPGMGLRLIHYSVGAGITDQGEVPNGYNVSRLNKREFSLRLESAAPSQTSVYFCASSEWFDTEAFFGQGTRLTVV
- binding result [4]: recognises
